The target of the assay is HA-ezrin fused protein (human (cDNA from HEK293T cells)) (UniProt P15311).
Chain of UniProt P15311 (P15311 whole entry, the tested form may be a part): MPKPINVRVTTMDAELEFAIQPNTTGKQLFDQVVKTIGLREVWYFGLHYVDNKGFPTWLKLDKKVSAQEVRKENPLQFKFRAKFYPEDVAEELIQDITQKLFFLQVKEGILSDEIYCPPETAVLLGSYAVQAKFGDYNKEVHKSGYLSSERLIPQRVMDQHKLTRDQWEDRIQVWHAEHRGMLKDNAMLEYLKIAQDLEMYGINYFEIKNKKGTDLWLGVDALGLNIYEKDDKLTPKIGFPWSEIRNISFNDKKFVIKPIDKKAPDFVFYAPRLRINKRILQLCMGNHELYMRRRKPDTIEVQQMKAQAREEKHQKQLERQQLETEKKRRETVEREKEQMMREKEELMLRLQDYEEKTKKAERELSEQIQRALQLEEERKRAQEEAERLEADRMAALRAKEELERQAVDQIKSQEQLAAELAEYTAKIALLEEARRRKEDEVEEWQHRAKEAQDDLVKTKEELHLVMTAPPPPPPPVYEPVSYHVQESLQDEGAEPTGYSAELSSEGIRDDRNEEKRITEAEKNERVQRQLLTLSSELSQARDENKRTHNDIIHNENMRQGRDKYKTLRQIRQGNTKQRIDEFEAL

For the substance “GFP-BifA fused protein (natural protein)”, the ratio of p-ezrin/total-ezrin in dHL60 cells under BifA treatment (10 μg/mL purified BifA), phos-tag gel and immunoblot, 0 to 2 h (ratio p-ezrin/total-ezrin) worked out at 1.

For the origin of these results see paper PMC9138245.
